B1: E. coli ribonucleotide reductase large subunit α2 (enzyme)
chain: MNQNLLVTKRDGSTERINLDKIHRVLDWAAEGLHNVSISQVELRSHIQFYDGIKTSDIHETIIKAAADLISRDAPDYQYLAARLAIFHLRKKAYGQFEPPALYDHVVKMVEMGKYDNHLLEDYTEEEFKQMDTFIDHDRDMTFSYAAVKQLEGKYLVQNRVTGEIYESAQFLYILVAACLFSNYPRETRLQYVKRFYDAVSTFKISLPTPIMSGVRTPTRQFSSCVLIECGDSLDSINATSSAIVKYVSQRAGIGINAGRIRALGSPIRGGEAFHTGCIPFYKHFQTAVKSCSQGGVRGGAATLFYPMWHLEVESLLVLKNNRGVEGNRVRHMDYGVQINKLMYTRLLKGEDITLFSPSDVPGLYDAFFADQEEFERLYTKYEKDDSIRKQRVKAVELFSLMMQERASTGRIYIQNVDHCNTHSPFDPAIAPVRQSNLCLEIALPTKPLNDVNDENGEIALCTLSAFNLGAINNLDELEELAILAVRALDALLDYQDYPIPAAKRGAMGRRTLGIGVINFAYYLAKHGKRYSDGSANNLTHKTFEAIQYYLLKASNELAKEQGACPWFNETTYAKGILPIDTYKKDLDTIANEPLHYDWEALRESIKTHGLRNSTLSALMPSETSSQISNATNGIEPPRGYVSIKASKDGILRQVVPDYEHLHDAYELLWEMPGNDGYLQLVGIMQKFIDQSISANTNYDPSRFPSGKVPMQQLLKDLLTAYKFGVKTLYYQNTRDGAEDAQDDLVPSIQDDGCESGACKI

Experiments:
[1] = target: E. coli ribonucleotide reductase large subunit α2 (E. coli) (UniProt P00452); experiment: cross-linking
[2] = target: ribonucleotide reductase β2 (Escherichia coli) (UniProt P69924); conditions: cited from earlier work
[3] = target: DAN-β2(V351C): (His)6-β2-C268S/C305S/V351C labelled with dimethylaminonaphthalene (E. coli); experiment: other fluorescence titration

Row | Molecule | percent cross-linked [1] [%] | other results
1 | BP-β2(V365C): (His)6-β2-C268S/C305S/V365C labelled with benzophenone (enzyme) | 19 | –
2 | BP-β2(Y356C): (His)6-β2-C268S/C305S/Y356C labelled with benzophenone (enzyme) | 9 | –
3 | ribonucleotide reductase α2 (from UniProt P00452) | – | Kd [2]: 200 nM
4 | B1 | – | Kd [3]: 380 nM
